Assay results published in US20070031956A1 (VERTEX PHARMACEUTICALS, published 2007).

Biological target: the molecule itself
Assay: analytical ultracentrifugation (sedimentation velocity), monomer-dimer self-association
Procedure: All sedimentation velocity experiments were performed with the Beckman Coulter Optima XL-I using an An60 Ti rotor and charcoal-filled Epon double-sector cells. […] Experiments were performed at 42,000 rpm for 8 h at 20° C. Radial absorbance scans were collected in continuous scan mode at 280 nm every 10 min at a spacing of 0.001 cm.

B1: Full-length human Pim-1 kinase (residues M1-K313) with N-terminal HexaHis tag and thrombin cleavage site (enzyme)
chain: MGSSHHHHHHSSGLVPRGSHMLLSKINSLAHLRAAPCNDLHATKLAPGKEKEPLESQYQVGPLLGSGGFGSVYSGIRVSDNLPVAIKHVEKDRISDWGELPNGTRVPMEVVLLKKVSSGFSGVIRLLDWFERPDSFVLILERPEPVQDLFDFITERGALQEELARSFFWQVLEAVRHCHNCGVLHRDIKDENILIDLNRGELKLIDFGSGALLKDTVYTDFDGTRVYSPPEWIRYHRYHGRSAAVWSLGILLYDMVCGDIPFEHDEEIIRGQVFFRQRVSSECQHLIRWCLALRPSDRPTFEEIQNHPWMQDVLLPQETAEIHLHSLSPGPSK
modifications: heterogeneous phosphorylation (mixture of species with 0-5 phosphoryl groups): extensively phosphorylated in the HexaHis tag region; Ser261 major site in Pools III and IV; minor sites Ser8, Thr23 and Ser98
notes: Expressed in E. coli and purified by TALON, Superdex 200 and MonoQ; also called Pim-1 protein
With B1 the Kd was 23 µM and the “monomer:dimer ratio (dimer share)” value was 20.
